The assay deals with Nn8 (fraction 8 from N. nivea venom) (Naja nivea, UniProt P01390, biotin (site not stated)). Put plainly: BLI.
Nn8 (fraction 8 from N. nivea venom), sequence (P01390 whole entry, looked up): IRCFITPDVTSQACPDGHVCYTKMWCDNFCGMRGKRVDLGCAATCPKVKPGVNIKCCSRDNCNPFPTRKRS

B1: TPL1158_01_C09 (VHH)
VHH: QVQLQESGGGLVQPGGSLRLSCAASGDIGGLKQMGWYRQAPGHQRELVAVKRNENEANYTESVKGRFTISRDNARKMVYLQMNSLKPEDTAVYYCNAVVGNWYTSGYYEDTYWGQGTQVTVSS
One may read the Kd as the constant that tells how readily two partners part at equilibrium. B1 displayed a Kd of 63 nM. This lies in the double-digit nanomolar range.

Source of the values: publication PMC12274480 (Communications Chemistry, 2025).
